Measurements as given in patent publication US9655974B2, “N-terminal modified FGF21 compounds” (Novo Nordisk A/S, priority 2010, dated 2017).
Substitutions are numbered along the chain they refer to. In names and notes the source's numbering stands.

How the values were obtained:
[1] = tested on: 3T3-L1 adipocytes; test: Potency assay - glucose uptake in 3T3-L1 adipocytes; assay type: cell-based, mouse; details: EC50 relative to EC50 of Met-FGF21; 20 hours stimulation, 3H-deoxyglucose tracer
Experimental: The following assay was used for determining the biological activity, or potency, of FGF21 compounds of the invention. […] The cells are not allowed to reach confluence and should be passed (transferred to new vials) before reaching approx. 60% of confluency (by visual inspection). For the glucose uptake assay, cells are plated 80,000 cells/well in a 24 well plate, or 20,000 cells/well in a 96 well plate, and when they reach confluency (high density, with a view to have differentiated adipose cells made), the medium is changed from basal medium to basal medium containing Troglitazone, IBMX, Dexamethasone (commercially available from, e.g., Sigma) and human insulin (commercially available from, e.g., Novo Nordisk A/S). The cells are used 7-14, preferably 7-10, days after initiation of differentiation. […] This incubation is terminated by washing twice in ice cold assay buffer. The cells are lysed with Triton X-100 and lysates transferred to a 96 wells plate, microscint-40 (commercially available from, e.g., Perkin Elmer) is added and amount of tracer counted in a TOP-counter (e.g. a Packard top-counter from Perkin Elmer). The EC50 of the polypeptide in question is calculated.

[2] = tested on: HEK293 cells stably transfected with human beta-Klotho; test: HEK293/beta-Klotho Erk phosphorylation assay; assay type: cell-based; details: without HSA; 12 minutes incubation; AlphaScreen SureFire Phospho-ERK1/2; read-out: pERK-HEK293-Beta-klotho without HSA [EC50 (nM)] Mean Value
Experimental: Erk phosphorylation assay was performed in HEK293 cells that were stably transfected with human beta-Klotho. The HEK293T/b-klotho stable cells were seeded at 30000 cells/well on 96-well plates. After two days, fresh media was added, and after 2 hours more the FGF21 proteins were added. The plates were incubated for 12 minutes. And total ERK phosphorylation was assessed using an AlphaScreen SureFire Phospho-ERK1/2 Assay Kit (Perkin Elmer, Waltham, Mass.) according to the manufacturer's instructions and an EnVision Multilabel Microplate Reader Model 2103 (Perkin Elmer) with the AlphaScreen HTS Turbo option was used for signal detection. Data are represented as means+/−S.E.M. EC50 values were determined from a 4-parameter logistic nonlinear regression analysis using GraphPad Prism version 5.02. References: Yie, J. et al.: FGF21 N- and C-termini play different roles in receptor interaction and activation, FEBS Letters 583 (2009) 19-24, and Micanovic R. et al.: Different roles of N- and C-termini in the functional activity of FGF21. J. Cell. Physiol. 2009 May; 219(2):227-34.

[3] = Pharmacokinetics in mini pig, single intravenous dose; assay type: in vivo; details: normal male Göttingen mini pigs, single intravenous dose of 0.1 mg/kg; standard deviation 2.7 hours
Experimental: The pharmacokinetic profile of Met-FGF21 can be tested in normal male Göttingen mini pigs, n=4 (8-15 months old, weighing approximately 18-30 kg). The plasma concentration of the compound to be tested is monitored for 14 days. The Met-FGF21 is dosed as a single intravenous dose of 0.1 mg/kg (approximately 5 nmol/kg).
The plasma levels of the FGF21 compounds can be determined using Fibroblast Growth Factor-21 Human ELISA (available from BioVendor, catalogue no. RD191108200R). The PC based software, WinNonLin version 5.2 from Pharsight Corporation, Cary N.C., can be used for the pharmacokinetic calculation.

In the case of “N-alpha-(4-{[2-(2-{2-[2-(2-{2-[(S)-4-carboxy-4-(17-carboxyheptadecanoylamino)butyrylamino]ethoxy}ethoxy)acetylamino]ethoxy}ethoxy)acetylamino]methyl}benzyl) [K56R, K59R, K69R, D102T, D121Q, K122R, L166F, S167G, M168L, G170T] Ala-FGF21 [Example 5]”, the “Glucose uptake 3T3-L1 Potency (%) rel. to Met-FGF21” value [1] is reported as 100% and the EC50 [2] is reported as 1 nM.

With “N-alpha(4-{[2-(2-{2-[2-(2-{2-[(S)-4-Carboxy-4-(17-carboxyheptadecanoylamino)butyrylamino]-ethoxy}ethoxy)acetylamino]ethoxy}ethoxy)acetylamino]methyl}benzyl) [S71C, N121Q, L166F, S167G, M168L, P171L, S172E, Q173A, G174V, Y179F, A180E, des181] Ala-FGF21 [Example 6]” the “Glucose uptake 3T3-L1 Potency (%) rel. to Met-FGF21” value [1] was 352% and the EC50 [2] was 0.4 nM.

In the case of “[Q28R, K56R, K59R, K69R, D102T, D121Q, K122R, L166F, S167G, M168L, G170T] Ala-FGF21 [Example 2b]”, the “Glucose uptake 3T3-L1 Potency (%) rel. to Met-FGF21” value [1] is reported as 416% and the EC50 [2] is reported as 0.8 nM.

B1: [S71C, N121Q, L166F, S167G, M168L, 173aA, G174V, Y179F, A180E, des181] Ala-FGF21 (protein)
chain: AHPIPDSSPLLQFGGQVRQRYLYTDDAQQTEAHLEIREDGTVGGAADQSPESLLQLKALKPGVIQILGVKTCRFLCQRPDGALYGSLHFDPEACSFRELLLEDGYNVYQSEAHGLPLHLPGQKSPHRDPAPRGPARFLPLPGLPPALPEPPGILAPQPPDVGSSDPFGLVGPSQAVRSPSFE
For B1, the “Glucose uptake 3T3-L1 Potency (%) rel. to Met-FGF21” value [1] was 394%.

B2: N-alpha-bis-(4-{[(2-(2-{2-[2-(2-{2-[(S)-4-carboxy-4-(17-carboxyheptadecanoylamino)butyrylamino]ethoxy}ethoxy)acetylamino]ethoxy}-ethoxy)acetylamino]methyl}benzyl) [Arg56, Arg59, Arg69, Arg122] … (conjugate, UniProt Q9NSA1 29-209, looked up, variant K56R K59R K69R K122R)
Fibroblast growth factor 21: HPIPDSSPLLQFGGQVRQRYLYTDDAQQTEAHLEIREDGTVGGAADQSPESLLQLRALRPGVIQILGVRTSRFLCQRPDGALYGSLHFDPEACSFRELLLEDGYNVYQSEAHGLPLHLPGNRSPHRDPAPRGPARFLPLPGLPPALPEPPGILAPQPPDVGSSDPLSMVGPSQGRSPSYAS
modifications: N-terminal Gly; bis fatty diacid-linker benzyl acylation
For B2, the “Glucose uptake 3T3-L1 Potency (%) rel. to Met-FGF21” value [1] was 8.5% and the EC50 [2] was 4.6 nM.

B3: Met-FGF21 (protein)
chain: MHPIPDSSPLLQFGGQVRQRYLYTDDAQQTEAHLEIREDGTVGGAADQSPESLLQLKALKPGVIQILGVKTSRFLCQRPDGALYGSLHFDPEACSFRELLLEDGYNVYQSEAHGLPLHLPGNKSPHRDPAPRGPARFLPLPGLPPALPEPPGILAPQPPDVGSSDPLSMVGPSQGRSPSYAS
notes: comparative compound
With B3 the “mean half-life (T1/2)” value [3] was 10.8 h and the “Glucose uptake 3T3-L1 Potency (%) rel. to Met-FGF21” value [1] was 100%.

B4: [N121Q] Ala-FGF21 (protein)
chain: B3 chain with M1A, N122Q
With B4 the “Glucose uptake 3T3-L1 Potency (%) rel. to Met-FGF21” value [1] was 116%.

B5: [K56R, K59R, K69R, K122R] Gly-FGF21 (protein)
chain: B3 chain with M1G, K57R, K60R, K70R, K123R
With B5 the “Glucose uptake 3T3-L1 Potency (%) rel. to Met-FGF21” value [1] was 66%.

B6: [N121Q] Met-FGF21 (protein)
chain: B3 chain with N122Q
For B6, the “Glucose uptake 3T3-L1 Potency (%) rel. to Met-FGF21” value [1] was 119%.

B7: [N121Q, L166F, S167G, M168L, P171L, S172E, Q173A, G174V, Y179F, A180E, des181] Ala-FGF21 (protein)
chain: HPIPDSSPLLQFGGQVRQRYLYTDDAQQTEAHLEIREDGTVGGAADQSPESLLQLKALKPGVIQILGVKTSRFLCQRPDGALYGSLHFDPEACSFRELLLEDGYNVYQSEAHGLPLHLPGQKSPHRDPAPRGPARFLPLPGLPPALPEPPGILAPQPPDVGSSDPFGLVGLEAVRSPSFES
In the case of B7, the “Glucose uptake 3T3-L1 Potency (%) rel. to Met-FGF21” value [1] is reported as 1593% and the EC50 [2] is reported as 0.7 nM.

B8: [S71C, N121Q, L166F, S167G, M168L, P171L, S172E, Q173A, G174V, Y179F, A180E, des181] Ala-FGF21 (protein)
chain: AHPIPDSSPLLQFGGQVRQRYLYTDDAQQTEAHLEIREDGTVGGAADQSPESLLQLKALKPGVIQILGVKTCRFLCQRPDGALYGSLHFDPEACSFRELLLEDGYNVYQSEAHGLPLHLPGQKSPHRDPAPRGPARFLPLPGLPPALPEPPGILAPQPPDVGSSDPFGLVGLEAVRSPSFE
In the case of B8, the “Glucose uptake 3T3-L1 Potency (%) rel. to Met-FGF21” value [1] is reported as 872%.

B9: [S71C, N121Q, L166F, S167G, M168L, des170, 173aA, G174V, Y179F, A180E, des181] Ala-FGF21 (protein)
chain: B8 chain with G171P, L172S, E173Q
With B9 the “Glucose uptake 3T3-L1 Potency (%) rel. to Met-FGF21” value [1] was 663%.
